Data on seven proteins can be found in article PMC6210743, “Starch Synthesis in Ostreococcus tauri: The Starch-Binding Domains of Starch Synthase III-B Are Essential for Catalytic Activity” (Frontiers in Plant Science, 2018).

Substrate in series [1]: Nc1ncnc2c1ncn2[C@@H]1O[C@H](COP(=O)(O)OP(=O)(O)O[C@H]2O[C@H](CO)[C@@H](O)[C@H](O)[C@H]2O)[C@@H](O)[C@H]1O
Nature of the series: Pi release by alkaline phosphatase from ADP, Malachite Green assay. The following applies: 2 mg/ml glycogen as acceptor, 50 mM BICINE pH 8.0, 30°C. It is filed as biochemical, Ostreococcus tauri. An excerpt:
Pi release by alkaline phosphatase from ADP, Malachite Green assay on OsttaSSIII-B

Substrate in series [2]: Nc1ncnc2c1ncn2[C@@H]1O[C@H](COP(=O)(O)OP(=O)(O)O[C@H]2O[C@H](CO)[C@@H](O)[C@H](O)[C@H]2O)[C@@H](O)[C@H]1O
The series is described as above. It is filed as biochemical, Ostreococcus tauri. To be noted: 2 mg/ml glycogen as acceptor, 50 mM BICINE pH 8.0, 30°C, nH 0.57. An excerpt:
Pi release by alkaline phosphatase from ADP, Malachite Green assay on OsttaSSIII-B CD

Substitutions are numbered along the chain they refer to. Names and notes keep the numbering of the source.

B1: OsttaSSIII-B (Ostreococcus tauri) (protein)
chain: ASVETQLDGTDHPRVFTVPATPVAGGALRVFADVERADALRSASGWKLIGGYNAWRVGEFTKDMIKVKGTSWVYADVNVDERAFSMDFVFKGDGEAYEKDEGQDFSLTVDFGPTPEEFEEMLKVIEMENKARDEANAFIDGQMARARESGAGASIEKYGRVICKTASGKPGVAGSTERVMWNKAYNPIGGDTDKLVLHVGFNGWCAGVEAKFDLVRATGEIKDENNDWWVADVPLRADAYLLDFVVSDVEESAWDNNEQANFTLAVETSDEEWAVLRELKFEEIRAMAFKKELAEKERKERRAKADAEAKAKAIEVGLKQQSYIIHTEPKVPQVGKPLKVFYNKNNTNLSWSDEIYMTGGFNRWSHEAAIEPVKMTPPGAGEEFFTVTVPRVPTDAWMVDFVFSSGVGEGAQYDNKSGRDYHLPTRGSTASKPPLHVCHIAVEMAPIAKVGGLADVVTAIGRAIQDNGHLVEIILPKYQFFNNSVLLGGKEYETHFDWAGTTIRVEKCKVEGLQCFFIEPQNNMFQTDSVYGRNDDAHRFNFFCNAALEFLVRTARQPDILHCHDWSSAEVARAYWEHYHHNGLTKPKVAFTIHNMNYGQAKLGEAVHHSQVATTVSPSYAGEVRGSPVIGNNGHKFTGVRNGIDPEIWDPETDIFVPVKYNADNQEEGKAAARAELRQRAGMTGWDDKPIVGVVSRLTAQKGVHLIKHAAHHTLSRGGQFVLLGSAPDPKIQGEFNGLANQLGGEDTGFFFAFDEPLSHLMYAGCDVILVPSMFEPCGLTQMISMRYGAVPVVRATGGLRDTVFDVDNEKERAAWEVGGSTDWKTDGDMTNGFSFEGTDEGSLNYALDRCLDAFYNDREWFRSLQKRVMLQDWSWNRPANDYEELYYKMIGR
For the protein B1, in series [1] (nH 1.16), the K0.5 amounted to 0.09 ± 0.02 mM and the Vmax (as a rule, the rate approached at saturating substrate) stood at 1.65 µmol/min/mg.

B2: OsttaSSIII-B (Ostreococcus tauri; Y147A) (protein)
chain: B1 chain with Y97A
Consider B2, for which, in series [1] (nH 0.78), the K0.5 was found to be 0.07 ± 0.01 mM and the Vmax came out at 1.1 µmol/min/mg.

B3: OsttaSSIII-B (Ostreococcus tauri; W279A) (protein)
chain: B1 chain with W229A
As to B3, in series [1] (nH 0.88), the K0.5 is 0.38 ± 0.11 mM and the Vmax turned out to be 0.42 µmol/min/mg.

B4: OsttaSSIII-B (Ostreococcus tauri; W304A) (protein)
chain: B1 chain with W254A
Consider B4, for which, in series [1] (nH 0.80), the K0.5 is reported as 0.15 ± 0.03 mM and the Vmax came out at 0.31 µmol/min/mg.

B5: OsttaSSIII-B (Ostreococcus tauri; W122A/Y124A) (protein)
chain: B1 chain with W72A, Y74A
For B5, in series [1] (nH 0.94), the K0.5 came to 0.11 ± 0.01 mM and the Vmax is 0.57 µmol/min/mg.

B6: OsttaSSIII-B (Ostreococcus tauri; F138A) (protein)
chain: B1 chain with F88A
On to B6, for which, in series [1] (nH 1.06), the K0.5 is 0.07 ± 0.02 mM and the Vmax is 0.23 µmol/min/mg.

B7: OsttaSSIII-B CD (Ostreococcus tauri) (protein)
chain: LHVCHIAVEMAPIAKVGGLADVVTAIGRAIQDNGHLVEIILPKYQFFNNSVLLGGKEYETHFDWAGTTIRVEKCKVEGLQCFFIEPQNNMFQTDSVYGRNDDAHRFNFFCNAALEFLVRTARQPDILHCHDWSSAEVARAYWEHYHHNGLTKPKVAFTIHNMNYGQAKLGEAVHHSQVATTVSPSYAGEVRGSPVIGNNGHKFTGVRNGIDPEIWDPETDIFVPVKYNADNQEEGKAAARAELRQRAGMTGWDDKPIVGVVSRLTAQKGVHLIKHAAHHTLSRGGQFVLLGSAPDPKIQGEFNGLANQLGGEDTGFFFAFDEPLSHLMYAGCDVILVPSMFEPCGLTQMISMRYGAVPVVRATGGLRDTVFDVDNEKERAAWEVGGSTDWKTDGDMTNGFSFEGTDEGSLNYALDRCLDAFYNDREWFRSLQKRVMLQDWSWNRPANDYEELYYKMIGR
As to B7, in series [2], the K0.5 came out at 0.12 ± 0.04 mM and the maximal velocity (Vmax) stood at 0.76 µmol/min/mg.
